The values that follow are results of earlier work, collected in article PMC2996745.

The target in this data set is VEGFR2 (flk-1) (Homo sapiens) (UniProt P35968).
UniProt P35968, sequence (P35968 20-1356): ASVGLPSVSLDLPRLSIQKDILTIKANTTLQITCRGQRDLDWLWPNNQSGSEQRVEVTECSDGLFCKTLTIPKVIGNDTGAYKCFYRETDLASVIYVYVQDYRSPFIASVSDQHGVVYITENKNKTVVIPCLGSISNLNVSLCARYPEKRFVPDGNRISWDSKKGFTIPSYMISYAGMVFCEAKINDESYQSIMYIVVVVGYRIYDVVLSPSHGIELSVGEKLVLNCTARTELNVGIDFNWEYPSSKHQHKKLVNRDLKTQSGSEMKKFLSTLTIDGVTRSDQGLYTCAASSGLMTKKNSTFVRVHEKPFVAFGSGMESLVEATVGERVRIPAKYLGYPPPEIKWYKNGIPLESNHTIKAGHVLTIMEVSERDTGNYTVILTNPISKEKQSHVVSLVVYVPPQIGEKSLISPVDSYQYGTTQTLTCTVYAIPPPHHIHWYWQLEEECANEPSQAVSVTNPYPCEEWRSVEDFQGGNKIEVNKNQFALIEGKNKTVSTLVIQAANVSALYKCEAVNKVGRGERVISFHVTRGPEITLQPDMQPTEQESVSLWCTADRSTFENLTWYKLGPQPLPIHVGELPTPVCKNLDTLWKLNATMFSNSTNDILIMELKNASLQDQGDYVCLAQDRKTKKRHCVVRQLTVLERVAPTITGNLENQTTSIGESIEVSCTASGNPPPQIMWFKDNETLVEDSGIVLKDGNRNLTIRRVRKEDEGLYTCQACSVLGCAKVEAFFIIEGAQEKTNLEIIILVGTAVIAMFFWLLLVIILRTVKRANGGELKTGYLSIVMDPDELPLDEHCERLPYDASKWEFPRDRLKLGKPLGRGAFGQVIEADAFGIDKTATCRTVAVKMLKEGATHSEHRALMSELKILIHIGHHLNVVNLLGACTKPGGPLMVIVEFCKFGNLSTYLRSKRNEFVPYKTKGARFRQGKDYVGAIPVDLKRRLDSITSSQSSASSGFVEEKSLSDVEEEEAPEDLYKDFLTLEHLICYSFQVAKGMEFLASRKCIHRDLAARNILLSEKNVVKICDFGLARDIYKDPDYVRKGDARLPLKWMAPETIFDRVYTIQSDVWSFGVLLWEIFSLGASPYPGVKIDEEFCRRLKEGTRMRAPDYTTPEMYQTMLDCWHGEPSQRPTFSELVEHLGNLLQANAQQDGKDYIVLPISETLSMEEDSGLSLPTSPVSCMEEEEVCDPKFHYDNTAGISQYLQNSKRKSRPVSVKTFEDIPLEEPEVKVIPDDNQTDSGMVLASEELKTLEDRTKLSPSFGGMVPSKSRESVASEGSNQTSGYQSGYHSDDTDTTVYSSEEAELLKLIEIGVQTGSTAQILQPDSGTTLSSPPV

Take VEGF-A (from UniProt P15692): the Kd was 0.1 nM.
